Test: label from the status in PepcDB records

| Sequence | protein production |
| --- | --- |
| MKELLKLDFFIQKKYIKSSIIVFLFLGITFALTQGMNYLYTMGTFIVFYLTIIPIEVERKSKFNIYLNSLPNKKSNYIYSKYLSTLIYIIVVNLFLYLFCTILGVISGSDFTLTLRAILPNIIVQLFYVSLTLPVYMIISHKFYRVVNIIFTILIMMISSILFNSLENENLQVLFNITNGVYGLAFGILALIISLIVSLNIYKKSEVS | failed |
| MSKFKSHNSNNTKQTINKHALIFGLISVFLSGIGFTIISPVIPFLVQPYINNPGNQAIIVTLLTSVYAICMFFSAPGLGALSDKYGRRPVLLVCLLGSSIGYLIFGIGGALWVLFAGRIIDGITGGTISTIFAYFADIIPENERTKYFGWVSAVVGVGTIIGPTLGGLLAKFGYSVPLYFGAIITLLNVVYGFFFMPESLDKNIRLKEITFVRLNPFTQLANLLSIKSLKRLLISAFLLWIPNGSLQAVFSQFTIDTFSWKPAIIGLMFSIMGFQDIISQSLIMPKLLVKLSDKYIAILGMISEVIGYSLIAASALFYFYPLFIAGMFIFGFGDSIFGPSFNGMLSKSVDSSEQGRIQGGSQSIQALARMIGPIIGGQIYVSLGHATPAFMGIVLITVAIPVLYKNIHINI | failed |
| MALKDTGSGGSTILPISEMVSASSSPGAPLAAAPGPCAPSPFPEVVELNVGGQVYVTKHSTLLSVPDSTLASMFSPSSPRGGARRRGDLPRDSRARFFIDRDGFLFRYVLDYLRDKQLALPEHFPEKERLLREAEFFQLTDLVKLLSPKVTKQNSLNDECCQSDLEDNVSQGSSDALLLRGAAAGAPSGSGAHGVSGVVGGGSAPDKRSGFLTLGYRGSYTTVRDNQADAKFRRVARIMVCGRIALAKEVFGDTLNESRDPDRQPEKYTSRFYLKFTYLEQAFDRLSEAGFHMVACNSSGTAAFVNQYRDDKIWSSYTEYIFFRPPQKIVSPKQEHEDRKRDKVTDKGSESGTSCNELSTSSCDSHSEASTPQDNPANTQQAAAHQPNTLTLDRPSRKAPVQWMPPPDKRRNSELFQSLISKSRETNLSKKKVCEKLSVEEEMKKCIQDFKKIHIPDCFPERKRQWQSELLQKYGL | failed |
| MSSSKKPSQQPSQINLSAEIGQFISLNQEAFAELLTFIDFAEKFTLGLVEVNFPPDVDLLIAALQNNPDCENIQFFILKCVDANLRFLRDEIIKRLSEIELESNKKLVLIVRGLENAIGVFGEYPPVLQDLNFVRDAYKRTVPHPILFILPDYAITRLAKFAPDFWAWRSGIFRFKTPAITKENAINQVKNSEILDRIEPPEKQERIDLLHRLLMEEKPTGQQVTDGNLRSYSNILHQLGQAYLSHIKPEKAREYLEEAERISENLQDELFQAEVINTLGDTYSLQRQFNLGIKYYEKSLLIARRLENRLSEINALFKLGNAYLDLRQFSQAAKFYQQCLDIEQEIGDRYSQASTYHELGRVAQNLREWEQAKTYYQQALDITIEFGDRYNQASTYHQLGMVAQKLRKWEQAKTYYQQALDITIEFGDRYNQARIYHQLAIVAQNLREWQQAKTYYQQALDLKIEFGDRYNQASTYHQLGMVAQNLREWEQAKTYYQQALDITIEFGDRYSQASTYHQLGIVAQNLREWEQAKTYYQQALDLKIEFGDRYSQASTYGQLGTLAEAQENYVEARLNLQTALEIYVEYKDEHWAGIARKILDELPE | failed |
| MNPLARFLALAGFTVALASCQMFTPPEVQESGFQPSDRPITVDNVGANNKLAELAKAQHPRILATYGGEYSDPKLERMVAKVVGNLTVVSANPTQTYRITILNSPNVNAFALPGGYLYITRGLLALANDSSELAAVIAHEMGHVTANHGLQRQQLEAEEGLATKVVSDVLGDSPTAKAALIRGKLRLAQFSRNQELEADAIGIKSIGEAGYDPYAAGRFLQSMSAYTDFRSISGATDASLDFLATHPNTPQRIDLAQRHARQFGAPGVGTRDRDSFLAGIDGLLYGDTPEEGYVRGETFLHPGLGVSFTVPDGFIIDNSAAAVTATGPGDIAIRFDGVSIDKNRALTDYIRSGWVAGLDDSTVKQETINGNEAATAHAGAEGWQFDIAVIRAGGQVYRLLTAAPSASTSLETVARSVSGSFRVLSAAEKAALKPLHIRVLTVQPGQTMGSLAAQMVGVDRKLDLFRVLNALSPGAAVSAGDKVKIVTDK | failed |
| MIKIAVIAGGSFDCLPEPADLYVGVDAGSLRLLDHSLPLDWAIGDFDSVTSEELGQIREMAEQFLQAPAEKDDTDLELALKEIFKAYPQAQVRIYGALGGRMDHMMSNLFLVAEPDLAAYMEQIELVDSQNVVRFRPAGSHRISPIAGMKYISFMPSDQSHLTIRYAKYPLDASNYFFKKCYASNEFIDRDIDIQLDQGYVVLIYSKDKD | failed |
| MSWLLVIAAGFLEVVWASGLKHADSFVDWLMIFVLIAVSFIMLIRSYRNIPMASAYTVFVGIGTAGTYVTGIFMGETFSGGQIFFLIVLLGGIIGMKMFTKENNAQSGGDE | failed |
| MSEVLTRGFRFRPADEEVTDYLMRKTQSPEFSCFIKTIDLYDKDPWVLGHVRDPCYNHYEWYYFVKKNPLGNEYLDKPRLNGFEHPRLKWDVLKQIHDALSSGQNVPPSVFTYGFRFHPTDQELLSLYLTPKAHSPDFSCFIRERESYMPWSHGFLNMLDLLFTRTVNGTTL | failed |
| MGSCMKWDYGEMEDFSVSASGLFITNEGNFQYSNATLSYYDPATCEVENEVFYRANGFKLGDVAQSMVIRDGIGWIVVNNSHVIFAIDINTFKEVGRITGFTSPRYIHFLSDEKAYVTQIWDYRIFIINPKTYEITGYIECPDMDMESGSTEQMVQYGKYVYVNCWSYQNRILKIDTETDKVVDELTIGIQPTSLVMDKYNKMWTITDGGYEGSPYGYEAPSLYRIDAETFTVEKQFKFKLGDWPSEVQLNGTRDTLYWINNDIWRMPVEADRVPVRPFLEFRDTKYYGLTVNPNNGEVYVADAIDYQQQGIVYRYSPQGKLIDEFYVGIIPGAFCWKLEHHHHHH | failed |
| MKKRAIVAVIVLLLIGLDQLVKSYIVQQIPLGEVRSWIPNFVSLTYLQNRGAAFSILQDQQLLFAVITLVVVIGAIWYLHKHMEDSFWMVLGLTLIIAGGLGNFIDRVSQGFVVDMFHLDFINFAIFNVADSYLTVGVIILLIAMLKEEINGN | failed |
| MKRQYYIGISLFITIIILVLDQITKFIIASSMKVGDSFEVIPNFLNITSHRNDGAAWGILSGKMSFFFIITIIILVVLIVFYIKEAKNNLLMQIAISLLFAGALGNFIDRVLHGEVVDFVDTYIFGYNFPIFNVADSSLTIGVLLIIIALLTDMKKEE | failed |
| TIFKDIYQLWFTQYKQTVKESTWVTTQRLFRLHILPIFSDYRIAKISIKDCQKAINQWFNAGLAKYHTLMNYVAKVLDYAINIDLISENPAKRVIVPVNKNDRS | failed |
| MWDALTNWLNLWVGQIEATVFQNVVLPVVYNLGFGGYAEDAFTGTEWLLVGLVQIAVMVLILGPLERLRPVEVVTDRAAIRTDILYTLIHRLGLFRLAMFFLLAPLMDGIEGHLRLLGWQRVNVEDWWPGVTSIPLISFSLYLALFDLLDYWYHRLSHTYRWWWSLHAVHHSQRQMTLWSDNRNHLLDDILRDFVFAAVALAVGVEPSQYVLLVALSQLLQSLQHANLRLHFGWLGERLLISPRFHRTHHAVGLGHEKRATAEKPARLGGCNYGVIFPWWDMLFGTADFTDVYHPTGIRDQMPPPAGRARSYGDGFLSQQWLGIKRLLRLG | failed |
| MENETVSELNQTQLQPRAVVALEYQVVTILLVLIICGLGIVGNIMVVLVVMRTKHMRTPTNCYLVSLAVADLMVLVAAGLPNITDSIYGSWVYGYVGCLCITYLQYLGINASSCSITAFTIERYIAICHPIKAQFLCTFSRAKKIIIFVWAFTSLYCMLWFFLLDLNISTYKDAIVISCGYKISRNYYSPIYLMDFGVFYVVPMILATVLYGFIARILFLNPIPSDPKENSKTWKNDSTHQNTNLNVNTSNRCFNSTVSSRKQVTKMLAVVVILFALLWMPYRTLVVVNSFLSSPFQENWFLLFCRICIYLNSAINPVIYNLMSQKFRAAFRKLCNCKQKPTEKPANYSVALNYSVIKESDHFSTELDDITVTDTYLSATKVSFDDTCLASEVSFSQS | failed |
| MTLTEQPQRIAILHSLYLEYFLALGTPPIASAGASTGDAMKALGEWETLKPYAGTAKIIDLGSARDLNLEAILGANPDVIVTFKGQGNLDKIYEQLEQIAPVILVDFSAPWQEQILACAEIVNKEADAQKLIKEIEDSVQSAKEKLSRLEHHHHHH | failed |
| MLTFIVVNYNGEKYLKECLNSIINQTYRKLRVLVIDNGSTDGSRDILRNFEDYYSRFEVIRNEENLGFAKAANQGIEMANTKFVALVNNDAFLERNWAEEMLKAADDLRAGIFASKILFEDGRINSAGHAIHRGLAVMERGFLEKDEGQFDEPCYVAGACAAAAMYRRSLFEDVGLFDEDYFMYNEDVDLSLRALIRGWKILYVPTAIAYHLHSASTGFLSDFSVYYNSRNWVWSVVKNVPRDLLLREFPYFILRNFSSMLFFCLRGNFAILKSKIDAIRELRKFLEKRREVQQKVRFKAVEDYIEGLGFGKALKVARLAGVLR | failed |
| MKTLHVQTASSSYPVFIGQGIRKKACELLTSLNRPLTRIMFVTDEEVDRLYGDEMLHLLQEKWPVKKVTVPSGEQAKSMDMYTKLQSEAIRFHMDRSSCIIAFGGGVVGDLAGFVAATFMRGIDFIQMPTTLLAHDSAVGGKVAVNHPLGKNLIGAFYQPKAVLYDTDFLRSLPEKELRSGMAEVIKHAFIYDRAFLEELLNIHSLRDITNDQLNDMIFKGISIKASVVQQDEKEEGIRAYLNFGHTLGHAVEAEYGYGQITHGDAVALGMQFALYISEKTVGCEMDRKRLVSWLKSLGYPSQIRKETETSVLLNRMMNDKKTRGGKIQFIVLNELGKVADHTFSRNELESWLNKWRLEETS | failed |
| MYRAAIPNLFTLGNLYSGFLSIGYASLGYYKSAAILVLIGMMLDSLDGRVARLLRVDSQMGKELDSLADVVTFGAAPAVLMYYTSFSNYGIIGLYIAGLFPLFGAYRLARFNVTPSSTSMKYFTGVPITAAGGLVAFLTLFSHTIPKIVLITVFVTFAFLMVSRIRIPSLKDVPIPRYSIIITLFLVGIIITMYQTGFGNFSVFLFIAIPLYILYMLSQFIRQRPSKKANKEK | failed |
| MIGQTDQNIVITYSANIQQVKILYVDEKGSEVSSMLLKGNTDQTVNVSYSVPDHWIAISGQDSPLQYTFKAKDNKNIVIRIGHKLEDQENDIHKIIRNVNIVNPDGSVAKVSQTAIFTRVHQRDEVTGEEVYGNWDKISQDFNAIDIPKIFGYTATSSVGKMTVTPDSQSENITITYTADIQNNKIVIIDDESHGSQINTVGFTGKTGKSIAWQVTIPENYDLAAGGKISGNYTFNAVNQIPIEVHVRHKHVQDDESKSVTRTIVTNLPGLDKSEIVQTVTFSRIIDKDLVDGN | failed |
| MATSGFKHLVVVKFKEDTKVDEILKGLENLVSQIDTVKSFEWGEDKESHDMLRQGFTHAFSMTFENKDGYVAFTSHPLHVEFSAAFTAVIDKIVLLDFPVAAVKSSVVATP | not failed |

From a protein production outcome set (Wang et al. 2014)
